# Where “and” joins values, the source holds several entries; their conditions need not be identical. Equal values may be shown once.
# B1: SHIZ119-N1C0 (protein)
# chain: MCNDNQNTVDVVVSTVNDNVIENNTYQVKPIDTPTTFDSYSWIQTCGTPILKDDEKYSLSFDFVAPELDQDEKFCFEFTGDVDGKRYVTQTNLTVVAPTLEVYVDHASLPSLQQLMKIIQQKNEYSQNERFISWGRIGLTEDNAEKLNAHIYPLAGNNTSQELVDAVIDYADSKNRLNLELNTNTAHSFPNLAPILRIISSKSNILISNINLYDDGSAEYVNLYNWKDTEDKSVKLSDSFLVLKDYFNGISSEKPSGIYGRYNWHQLYNTSYYFLRKDYLTVEPQLHDLREYLGGSLKQMSWDGFSQLSKGDKELFLNIVGFDQEKLQQEYQQSELPNFVFTGTTTWAGGETKEYYAQQQVNVVNNAINETSPYYLGREHDLFFKGHPRGGIINDIILGSFNNMIDIPAKVSFEVLMMTGMLPDTVGGIASSLYFSIPAEKVSFIVFTSSDTITDREDALKSPLVQVMMTLGIVKEKDVLFWSDLPDCSSGVCIAQY
# modifications: beta-galacoside-alpha-2,6-sialyltransferase from phorobacterium leiognathi (without signal peptide)
# Legend:
# [1] = Sialyltransferase activity of crude enzyme solution (14C CMP-NeuAc transfer to lactose); format: biochemical; details: crude enzyme extraction solution from transformed E. coli; with acceptor (120 mM lactose); 30° C. for 30 minutes; duplicate
# [2] = Enzyme activity of the sample after each purification step; format: biochemical
# Source text: The sialyltransferase activity may be measured by a known method, for example, the process described in J. Biochem., 120, 104-110 (1996) (which is hereby incorporated by reference in its entirety). For example, the enzyme activity can be evaluated by performing an enzyme reaction using CMP-NeuAc (N-acetylneuraminic acid) as a sugar donor substrate and lactose as a sugar acceptor substrate and evaluating the amount of the reaction product, i.e., sialyllactose. Note that one enzyme unit (1 U) of sialyltransferase is defined as the amount of the enzyme required to transfer one micromole of sialic acid per minute.
# Sialyltransferase activity was measured by a method described in J. Biochem., 120, 104-110 (1996) (which is hereby incorporated by reference in its entirety). Specifically, the enzyme reaction was performed using a reaction solution (30 μL) containing CMP-NeuAc (70 nmol, containing about 20000 cpm CMP-NeuAc in which NeuAc was labeled with ^14C; NeuAc represents N-acetylneuraminic acid) as a sugar donor substrate, lactose (1.25 μmol) as a sugar acceptor substrate, NaCl added to give a concentration of 0.5 M, and the enzyme prepared as described above. The enzyme reaction was carried out at 25° C. for about 10 to 180 minutes. After completion of the reaction, 1.97 mL of 5 mM phosphate buffer (pH 6.8) was added to the reaction solution, which was then applied to a Dowex 1×8 (PO4^3− form, 0.2×2 cm, manufactured by Bio-Rad Laboratories, Inc.) column. The radioactivity contained in the reaction product contained in the eluate (0 to 2 mL) from this column, that is, sialyllactose, was measured to calculate the enzyme activity. One enzyme unit (1 U) is defined as the amount of enzyme required to transfer one micromole of sialic acid per minute.
# The enzyme activity was measured by the method described in J. Biochem., 120, 104-110 (1996), as in Example 1. The amount of the protein was measured using a Coomassie Protein Assay Reagent (manufactured by Pierce) in accordance with the instruction manual attached thereto. One enzyme unit (1 U) was defined as the amount of enzyme required to transfer one micromole of sialic acid per minute.
# [3] = Confirmation of neuraminidase activity (long reaction, HPLC); format: biochemical; details: purified enzyme; PA-6′-sialyllactose signal decreased, PA-lactose signal increased with reaction time; FIG. 3-1
# Description: In the process described in Example 2(6), the reaction using the purified enzyme solution of the JT-SHIZ-119-derived recombinant β-galactoside-α2,6-sialyltransferase prepared in Example 3 was performed for a long time. The signal of the reaction product (PA-6′-sialyllactose, retention time: 4.02 min) decreased and the signal of the PA-lactose (retention time: 3.73 min), which was the original sugar acceptor substrate, increased in accordance with an increase in reaction time (FIG. 3-1).
# [4] = test system: JT-SHIZ-119-derived recombinant β-galactoside-α2,6-sialyltransferase N1C0 (neuraminidase activity); assay: Substrate specificity of neuraminidase activity with PA-sugar chains, HPLC; format: biochemical, Photobacterium leiognathi strain JT-SHIZ-119; details: PA-sugar chains with α2,3-, α2,6- or α2,8-linked sialic acid; 30° C. for 18 hours
# Description: The substrate specificity of neuraminidase, that is, the linkage mode of sialic acid to a sugar chain that is cleaved by the neuraminidase can be determined by, but not limited to, a method using a pyridylaminated sugar chain. More specifically, the enzyme reaction by neuraminidase is performed using PA sugar chains in which sialic acid is linked by α2,3-linkage, α2,6-linkage, or α2,8-linkage (for example, pyridylaminated sugar chains such as PA-Sugar Chain 029, PA-Sugar Chain 023, and PA-Sugar Chain 034 available from Takara Bio Inc.). The reaction product is analyzed by high performance liquid chromatography, and the amount of sialic acid that was cleaved is calculated from the retention time and peak area of the reaction product.
# To reveal the specificity of the neuraminidase activity of the JT-SHIZ-119-derived recombinant β-galactoside-α2,6-sialyltransferase N1C0, reactions using a PA-sugar chain shown in Table 4, to which sialic acid is linked via α2,3-, α2,6-, or α2,8-linkage (PA-Sugar Chain 029, PA-Sugar Chain 023, or PA-Sugar Chain 034, manufactured by Takara Bio Inc.) as a substrate were performed.
# To a purified enzyme solution of the JT-SHIZ-119-derived recombinant β-galactoside-α2,6-sialyltransferase N1C0 (equivalent to 0.6 U as sialyltransferase activity), 1.5 μL of a 10 pmol/μL PA-sugar chain was added, followed by reaction at 30° C. for 18 hours. After completion of the reaction, the reaction solution was treated at 100° C. for 2 minutes to inactivate the enzyme, followed by HPLC to analyze the reaction product. In the case of using PA-Sugar Chain 023 as the substrate, the pyridylaminated sugar chain was eluted and analyzed under the same conditions as those in Example 1. In the case of using PA-Sugar Chain 029 or PA-Sugar Chain 034 as the substrate, the elution was performed using eluent A (100 mM acetate-triethylamine, pH 5.0) and eluent B (100 mM acetate-triethylamine containing 0.5% n-butanol, pH 5.0) with a linear gradient of 0 to 100% eluent B (0 to 35 min), 100% eluent B (35 to 50 min), and then a linear gradient of 100% to 30% eluent B (51 to 75 min). The analysis was performed under the conditions of Example 1. FIGS. 3-2 to 3-8 show the results.
# [5] = Optimum pH and optimum temperature for neuraminidase activity; format: biochemical; details: purified enzyme
# Description: The optimum pH and the optimum temperature for neuraminidase activity of the recombinant β-galactoside-α2,6-sialyltransferase SHIZ119-N1C0 derived from the JT-SHIZ-119 strain were investigated using the purified enzyme prepared in Example 3.
# The enzyme activity at various pH levels was measured at 35° C. with the buffer used in Example 4.
# The neuraminidase activity was measured at every increment of 5° C. starting from 5° C. up to 50° C. using cacodylate buffer (pH 6.0).
molecule,measurement,setting,value
B1,Transferred NeuAc,[1],7786 cpm and 8446 cpm
same,Specific activity,[2]; sample: Crude enzyme solution,5.5 U/mg
same,Specific activity,[2]; sample: HAP,82.9 U/mg
same,Specific activity,[2]; sample: Mono-Q,36.2 U/mg
same,Specific activity,[2]; sample: Q-sepharose,35.6 U/mg
same,neuraminidase activity (in words),[3],also has neuraminidase activity
same,specificity of neuraminidase activity (linkage mode),[4],"specific to sialic acid of α2,6-linkage"
same,pH at which neuraminidase activity is the highest (optimum pH),"[5]; 35° C., FIG. 4-1",6.0
same,temperature at which neuraminidase activity is the highest (optimum temperature),"[5]; cacodylate buffer (pH 6.0), 5° C. up to 50° C., FIG. 4-2",35 °C
